Measurements taken from the supplement of paper PMC9170038.

Test system: MS2 coat protein
Assay: apparent KD of MS2 coat protein; designed switch direction (-1 OFF switch, 1 ON switch): 1; higher = weaker reporter binding
Method in brief: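 Designed RNA switches with common flanks were made on Illumina chips by stalled E. coli RNA polymerase. Titration with SNAP-549-labelled MS2 coat protein doubled from 0.7 or 1.5 nM up to 3 µM. Apparent KD is each design's median over clusters after curve-fitting normalised fluorescence.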

[1] = input ligand: microRNA oligo, concentration not stated
[2] = Eterna round: R95, input ligand: FMN 200 uM
[3] = Eterna round: R95, input ligand: microRNA oligo, concentration not stated
[4] = Eterna round: R95, input ligand: none

UCGGGCGUACUUGCUGACAUGAGGAUCACCCAUGUCCUUGGGAAGGAUAUGGUUCCGUUUCGGUUCCAGAAGGUCCUGGCUGCU [salish99_SSNG3_r04_317] (Eterna round: R96, puzzle: Same State NG 3)
apparent KD of MS2 coat protein (input ligand: FMN 200 uM): 0.0301 µM | apparent KD of MS2 coat protein [1]: 0.0426 µM | apparent KD of MS2 coat protein (input ligand: none): 0.0782 µM

GCUCGAUGAUAGGCCUACAUGAGGAUCACCCAUGUGACUGGGCAGGAUAUCUAAAUGCAGAAUGUAGAGAAGGGCCCGUCGAGC [SameState NG3 #52] (Eterna round: R96, puzzle: Same State NG 3)
apparent KD of MS2 coat protein (input ligand: FMN 200 uM): 0.269 µM | apparent KD of MS2 coat protein [1]: 0.0695 µM | apparent KD of MS2 coat protein (input ligand: none): 0.409 µM

GCUCGUAUCACGACCGACAUGAGGAUCACCCAUGUAUGUUGGUAGGAUAUCUAUAUUAAGGAUAUAGAGAAGGGCCGAACGAGC [SameState NG3 #14] (Eterna round: R96, puzzle: Same State NG 3)
apparent KD of MS2 coat protein (input ligand: FMN 200 uM): 0.0235 µM | apparent KD of MS2 coat protein [1]: 0.0248 µM | apparent KD of MS2 coat protein (input ligand: none): 0.0301 µM

UUAUCUCAGACAUGAGGAUCACCCAUGUGGUUUUGACUUAGACAGGAUAUAGUAGUAUCGAAAUACUAGAAGGGUCAUUUUAUU [JR_SSNG3_Sub022] (Eterna round: R96, puzzle: Same State NG 3)
apparent KD of MS2 coat protein (input ligand: FMN 200 uM): 0.0913 µM | apparent KD of MS2 coat protein [1]: 0.0995 µM | apparent KD of MS2 coat protein (input ligand: none): 0.125 µM

CCAACAUACAAUUUAAGAUCACAUGAGGAUCACCCAUGUAUGCAGGAUAUCAGCUCGAAUAGAGCUGAGAAGGGCAAUUUAAUU [SSNG3/1-A1] (Eterna round: R96, puzzle: Same State NG 3)
apparent KD of MS2 coat protein (input ligand: FMN 200 uM): 0.0947 µM | apparent KD of MS2 coat protein [1]: 0.127 µM | apparent KD of MS2 coat protein (input ligand: none): 0.262 µM

GAGUGGCAGUUAGGAUAUAUAGUGAUAAUGAUAAUAGAAGGAACAGACAUGAGGAUCACCCAUGUAGGACUAAUCCAGAGAGAG [Parity 34 - Jieux - Same State NG 1] (Eterna round: R96, puzzle: Same State NG 1)
apparent KD of MS2 coat protein (input ligand: FMN 200 uM): 0.0323 µM | apparent KD of MS2 coat protein [1]: 0.0217 µM | apparent KD of MS2 coat protein (input ligand: none): 0.0283 µM

CUCACAUGGGUAGGAUAUCUAGGAUAUGGGAAAGACUAAGUCUGUAGGUCACCUAACCCAGAUGGAGAGAAGGACCCAACACUC [pwkr ssNG2 2FMN + F9.37] (Eterna round: R96, puzzle: Same State NG 2)
apparent KD of MS2 coat protein (input ligand: FMN 200 uM): 0.0324 µM | apparent KD of MS2 coat protein [1]: 0.00781 µM | apparent KD of MS2 coat protein (input ligand: none): 0.00982 µM

AAGAAACAUGAGGAUCACCCAUGUAAGAUAAACACAGGAUAUGCGAAUAAAAUAAAUAAAGCAGAAGGGUGAAGAA [Mat - Same State 1 - Tesla mod - D150] (Eterna round: R96, puzzle: Same State 1)
apparent KD of MS2 coat protein [1]: 0.0389 µM

AUAAUAAUAAGUCAGGAUAUGUUGAUAAAGACAUGAGGAUCACCCAUGUGAAAUAAAAUAAUAAUACAGAAGGGACAAUAAUAAA [JMF's solution 3] (puzzle: Same State 2)
apparent KD of MS2 coat protein [2]: 0.252 µM | apparent KD of MS2 coat protein [3]: 0.064 µM | apparent KD of MS2 coat protein [4]: 0.265 µM

CAGAGCCCAUGGGCCUGACAUGAGGAUCACCCAUGUGGCUUUGAGGAUAUAAGCGGAAACACCGCUUAGAAGGCGAAGCCUAAC [Atxerati] (Eterna round: R96, puzzle: Same State NG 3)
apparent KD of MS2 coat protein (input ligand: FMN 200 uM): 0.0795 µM | apparent KD of MS2 coat protein [1]: 0.0187 µM | apparent KD of MS2 coat protein (input ligand: none): 0.0343 µM

GCGAGCGUACUUGCAGACAUGAGGAUCACCCAUGUAAAUGGGAAGGAUAUGGUACCGUUUCGGUACCAGAAGGUCCUAAGUGAU [salish99_SSNG3_r04_301] (Eterna round: R96, puzzle: Same State NG 3)
apparent KD of MS2 coat protein (input ligand: FMN 200 uM): 0.665 µM | apparent KD of MS2 coat protein [1]: 1.08 µM | apparent KD of MS2 coat protein (input ligand: none): 1.13 µM

GUGUGUUGCGGGCAGGAUAUGUACUUGAGUACAUGAGGAUCACCCAUGUGCGGGUGUUUCACCCGACAGAAGGGCCUAUCGCGAC [JL-ss2-3.25 ViennaUCT mod] (Eterna round: R96, puzzle: Same State 2)
apparent KD of MS2 coat protein (input ligand: FMN 200 uM): 0.252 µM | apparent KD of MS2 coat protein [1]: 0.457 µM | apparent KD of MS2 coat protein (input ligand: none): 1.07 µM

AGCUAUUACGAAGGAUAUAGUGACAUGAGGAUCACCCAUGUGUACAUGAGUAAUUGUGAUCACGUCUAGAAGGUUGUACUAACA [SameState NG2 #35] (Eterna round: R96, puzzle: Same State NG 2)
apparent KD of MS2 coat protein (input ligand: FMN 200 uM): 0.181 µM | apparent KD of MS2 coat protein [1]: 0.165 µM | apparent KD of MS2 coat protein (input ligand: none): 0.18 µM

CCGUAAUAUGGAGGAUAUGGAGCCUUAUUGGCUCCAGAAGGUCAAAACACAUGAGGAUCACCCAUGUCGGCGGUCAAUAGACCG [Eli NG1ss - 75] (Eterna round: R96, puzzle: Same State NG 1)
apparent KD of MS2 coat protein (input ligand: FMN 200 uM): 0.0314 µM | apparent KD of MS2 coat protein [1]: 0.0429 µM | apparent KD of MS2 coat protein (input ligand: none): 0.0453 µM

CGUCGCUGUCGAGAGGAUAUGCGGUGGUGGACAUGAGGAUCACCCAUGUUAGCGAUAGCAUCACGGUAGAAGGCUCUUACGACUG [Soteed Omei mod 25] (puzzle: Same State 2)
apparent KD of MS2 coat protein [3]: 0.0181 µM

GGAGCCGGCACCGAGGAUAUUCAUAUUAAAACAUGAGGAUCACCCAUGUAGGCCAGAAGGCUUUGGGAGAAGGCGGAUCGGCUCG [Xeonanis - 3] (puzzle: Same State 2)
apparent KD of MS2 coat protein [2]: 0.0253 µM | apparent KD of MS2 coat protein [3]: 0.31 µM | apparent KD of MS2 coat protein [4]: 0.546 µM

UUGCUCGUGUGAGGAUAUGCCGCCGUUUCGGCUGCAGAAGGUACUCUUGUACAUGAGGAUCACCCAUGUCUCUGUUGUUUCGUG [salish99_SSNG1_r04_938] (Eterna round: R96, puzzle: Same State NG 1)
apparent KD of MS2 coat protein [1]: 0.0436 µM

AAAAUUUCUGCACAGGAUAUGUAGUGUUUCACAUGAGGAUCACCCAUGUCAAAACCAGAGACUGUACAGAAGGGUGCGGUCGGAC [Onedxequ] (puzzle: Same State 2)
apparent KD of MS2 coat protein [2]: 0.0158 µM | apparent KD of MS2 coat protein [3]: 0.0103 µM | apparent KD of MS2 coat protein [4]: 0.0146 µM

UUGCGCUGUCGAGAGGAUAUGCGGUGUUGGACAUGAGGAUCACCCAUGUUUGCGAUAGCUUUACGGUAGAAGGCUCUUCAGCUGC [salish99_ss2_r3_099] (puzzle: Same State 2)
apparent KD of MS2 coat protein [3]: 0.0458 µM

GAGUGGUAGAGAGGAUAUGCAUUGUUAUUAAAUGCAGAAGGUUUUAACAUGAGGAUCACCCAUGUAGGACUAUUCCUGUGUUUC [Parity 66 - Jieux - Same State NG 1] (Eterna round: R96, puzzle: Same State NG 1)
apparent KD of MS2 coat protein [1]: 0.0108 µM

UCUUGGUUUUUGCUCGUUUUUUGUGUUGAACAUGAGGAUCACCCAUGUAUUGUACGGUCCAGUUUAAUAGUGGUCCG [JMF 31] (puzzle: Sensor for hsa-mir-208a)
apparent KD of MS2 coat protein [2]: 0.0258 µM | apparent KD of MS2 coat protein [3]: 0.0134 µM | apparent KD of MS2 coat protein [4]: 0.0238 µM

GGUCGGACUCACAUGAGGAUCACCCAUGUUGCGGAAACGCGGCAGGAUAUCUGUCCGAAAAGGUCAGAGAAGGGUCAACCGACC [Fiskers NG3ss - 62] (Eterna round: R96, puzzle: Same State NG 3)
apparent KD of MS2 coat protein (input ligand: FMN 200 uM): 0.644 µM | apparent KD of MS2 coat protein [1]: 0.141 µM | apparent KD of MS2 coat protein (input ligand: none): 0.199 µM

GUAGCAUACCGAGGAUAUUCAUAAACAUGAGGAUCACCCAUGUAGGCCAGCAUUAGCUGGCCUUGGGAGAAGGCGGAAUGCUAC [Xeonanis - 20 Mod51] (Eterna round: R96, puzzle: Same State NG 2)
apparent KD of MS2 coat protein (input ligand: FMN 200 uM): 0.0174 µM | apparent KD of MS2 coat protein [1]: 0.0539 µM | apparent KD of MS2 coat protein (input ligand: none): 0.0774 µM

AUCAAAACAAGUUGCAGUGUUCGUCUUUCACAUGAGGAUCACCCAUGUAAUAGCCCAGCGGAAGCACUCGGGCCACC [Arzasola] (puzzle: Sensor for hsa-mir-208a)
apparent KD of MS2 coat protein [2]: 0.0268 µM | apparent KD of MS2 coat protein [3]: 0.0281 µM | apparent KD of MS2 coat protein [4]: 0.0312 µM

UGAAAACAUGAGGAUCACCCAUGUAUUAUUAUGGGAGGAUAUGGGAAUUAAUUAAUUAAACCAGAAGGCCUAAAGU [Mat - Same State 1 - D89] (puzzle: Same State 1)
apparent KD of MS2 coat protein [2]: 0.0247 µM | apparent KD of MS2 coat protein [3]: 0.0572 µM | apparent KD of MS2 coat protein [4]: 0.0526 µM

UGUUAACAUGAGGAUCACCCAUGUCAAAUGAAGCGAGGAUAUGGAAAGUAAUAAGAUGAACUAGAAGGUGUAGAUG [Altered State 1-21 - Jieux - Same State 1] (puzzle: Same State 1)
apparent KD of MS2 coat protein [2]: 0.0405 µM | apparent KD of MS2 coat protein [3]: 0.0484 µM | apparent KD of MS2 coat protein [4]: 0.0528 µM

UGAGGUGUAGCAGGAUAUGCCGUCAGUCACCCGGCAGAAGGGCUGAAAGCAUGCUCGCACAUGAGGAUCACCCAUGUCACAGUG [Eternabot solution 17] (Eterna round: R96, puzzle: Same State NG 1)
apparent KD of MS2 coat protein (input ligand: FMN 200 uM): 0.0489 µM | apparent KD of MS2 coat protein [1]: 0.0377 µM | apparent KD of MS2 coat protein (input ligand: none): 0.044 µM

AACAAUCUAUCUGAGGAUAUCAUGAAAUAAACAUGAGGAUCACCCAUGUGCAGGAAAACUGCAUAUGAGAAGGCAGAUAGUUUGA [salish99_ss2_r3_056] (puzzle: Same State 2)
apparent KD of MS2 coat protein [2]: 0.0475 µM | apparent KD of MS2 coat protein [3]: 0.716 µM | apparent KD of MS2 coat protein [4]: 0.855 µM

AAACGACACACAGGAUAUCCGCCAUGCAGGCUCGGAGAAGGGUGUGAAACAUGAGGAUCACCCAUGUAGUCAAAAUAAUAAAGA [Arardixequ] (Eterna round: R96, puzzle: Same State NG 1)
apparent KD of MS2 coat protein (input ligand: FMN 200 uM): 0.047 µM | apparent KD of MS2 coat protein [1]: 0.0629 µM | apparent KD of MS2 coat protein (input ligand: none): 0.0589 µM

GCUGCGUUUAACGCCUACAUGAGGAUCACCCAUGUAUGUAGGCAGGAUAUCGUUUGCUUUGCAAACGAGAAGGGCUGUAGUAGC [salish99_SSNG3_R04_005] (Eterna round: R96, puzzle: Same State NG 3)
apparent KD of MS2 coat protein (input ligand: FMN 200 uM): 0.0416 µM | apparent KD of MS2 coat protein [1]: 0.085 µM | apparent KD of MS2 coat protein (input ligand: none): 0.0738 µM

CGUCCGGCCUGUGCUGGCCGGUAGCUUGUACAUGAGGAUCACCCAUGUUCUUGUGCAGGCUUUUUGCUCGUCUUGUG [salish99_mir208a_016] (puzzle: Sensor for hsa-mir-208a)
apparent KD of MS2 coat protein [2]: 0.365 µM | apparent KD of MS2 coat protein [3]: 0.0239 µM | apparent KD of MS2 coat protein [4]: 0.452 µM
